Test results: publication PMC4068106

Molecular target: T1, human C-reactive protein (GMP preparation) (human), P02741
T1 chain: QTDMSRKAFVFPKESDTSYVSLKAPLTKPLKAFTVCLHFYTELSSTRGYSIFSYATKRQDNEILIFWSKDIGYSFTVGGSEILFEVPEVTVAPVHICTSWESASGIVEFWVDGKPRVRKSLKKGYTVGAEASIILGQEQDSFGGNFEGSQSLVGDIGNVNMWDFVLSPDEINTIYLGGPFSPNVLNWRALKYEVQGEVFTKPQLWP
Experiment: SEC; 0.02 mg in 100 uL on Superdex 200, 0.5 mL/min, 10 mM Tris, 140 mM NaCl, 2 mM CaCl2, pH 8.0; self-assembly of CRP
Settings: remark: other sources report otherwise

stoichiometry N: 5
B1: human C-reactive protein (GMP preparation), P02741 19-224 (natural protein)
chain: QTDMSRKAFVFPKESDTSYVSLKAPLTKPLKAFTVCLHFYTELSSTRGYSIFSYATKRQDNEILIFWSKDIGYSFTVGGSEILFEVPEVTVAPVHICTSWESASGIVEFWVDGKPRVRKSLKKGYTVGAEASIILGQEQDSFGGNFEGSQSLVGDIGNVNMWDFVLSPDEINTIYLGGPFSPNVLNWRALKYEVQGEVFTKPQLWP
modifications: here or on the partner: N-terminal PCA; N-terminal PCA
